Measurements published in US10450368.

Legend:
[1] = biological target: CH505 TF loop D mutant M20 Env (pseudovirus) (HIV-1); test: cell-based or functional assay
[2] = biological target: CH505 TF loop D mutant M7 Env (pseudovirus) (HIV-1); test: cell-based or functional assay
[3] = biological target: CH505 TF loop D mutant M8 Env (pseudovirus) (HIV-1); test: cell-based or functional assay
[4] = biological target: CH505 TF loop D mutant M9 Env (pseudovirus) (HIV-1); test: cell-based or functional assay
CH505.M10D8gp120 = test: direct-binding ELISA
CH505.M11D8gp120/293F = test: direct-binding ELISA
CH505.M19D8gp120 = test: direct-binding ELISA
CH505.M21D8gp120/293F = test: direct-binding ELISA
CH505.M5D8gp120293F = test: direct-binding ELISA
CH505.M7D8gp120/293F = test: direct-binding ELISA
CH505.M9D8gp120/293F = test: direct-binding ELISA
[5] = biological target: CH505.TF mutant gp120 M20 (HIV-1); test: direct-binding ELISA
[6] = biological target: CH505.TF mutant gp120 M6 (HIV-1); test: direct-binding ELISA
[7] = biological target: CH505.TF mutant gp120 M8 (HIV-1); test: direct-binding ELISA
[8] = biological target: CH505_w137V201B12.D11gp120 (HIV-1); test: direct-binding ELISA
[9] = biological target: CH505_w137V209C12.D11gp120 (HIV-1); test: direct-binding ELISA
[10] = biological target: CH505w136.B10D8gp120 (HIV-1); test: direct-binding ELISA
[11] = biological target: CH505w136.B12D8gp120 (HIV-1); test: direct-binding ELISA
[12] = biological target: CH505w136.B18D8gp120 (HIV-1); test: direct-binding ELISA
[13] = biological target: CH505w136.B20D8gp120 (HIV-1); test: direct-binding ELISA
[14] = biological target: CH505w136.B27D8gp120 (HIV-1); test: direct-binding ELISA
[15] = biological target: CH505w136.B29D8gp120 (HIV-1); test: direct-binding ELISA
[16] = biological target: CH505w136.B2D8gp120/293F (HIV-1); test: direct-binding ELISA
[17] = biological target: CH505w136.B36D8gp120 (HIV-1); test: direct-binding ELISA
[18] = biological target: CH505w136.B3D8gp120/293F (HIV-1); test: direct-binding ELISA
[19] = biological target: CH505w136.B4D8gp120 (HIV-1); test: direct-binding ELISA
[20] = biological target: CH505w136.B5D8gp120 (HIV-1); test: direct-binding ELISA
[21] = biological target: CH505w136.B8D8gp120 (HIV-1); test: direct-binding ELISA
[22] = biological target: CH505w160.A1D8gp120 (HIV-1); test: direct-binding ELISA
[23] = biological target: CH505w160.C11D8gp120 (HIV-1); test: direct-binding ELISA
[24] = biological target: CH505w160.C12D8gp120 (HIV-1); test: direct-binding ELISA
[25] = biological target: CH505w160.C14D8gp120 (HIV-1); test: direct-binding ELISA
[26] = biological target: CH505w160.C2D8gp120 (HIV-1); test: direct-binding ELISA
[27] = biological target: CH505w160.C4D8gp120 (HIV-1); test: direct-binding ELISA
[28] = biological target: CH505w160.D1D8gp120 (HIV-1); test: direct-binding ELISA
[29] = biological target: CH505w160.D5D8gp120/293F (HIV-1); test: direct-binding ELISA
[30] = biological target: CH505w160.T2D8gp120 (HIV-1); test: direct-binding ELISA
[31] = biological target: CH505w160.T4D8gp120/293F (HIV-1); test: direct-binding ELISA
Centromere B [32] = biological target: Centromere B (UniProt P07199); test: AtheNA, Ab 25 ug/ml
Histones [33] = test: AtheNA, Ab 25 ug/ml
Jo-1 [34] = biological target: Jo-1 (UniProt P12081); test: AtheNA, Ab 25 ug/ml
RNP (ribonucleoprotein) [35] = test: AtheNA, Ab 25 ug/ml
SSA [36] = test: AtheNA, Ab 25 ug/ml
SSB [37] = biological target: SSB (UniProt P05455); test: AtheNA, Ab 25 ug/ml
Scl-70 [38] = biological target: Scl-70 (UniProt P11387); test: AtheNA, Ab 25 ug/ml
Sm (Smith antigen) [39] = test: AtheNA, Ab 25 ug/ml
Jo-1 [40] = biological target: Jo-1 (UniProt P12081); test: AtheNA, Ab 50 ug/ml
SSB [41] = biological target: SSB (UniProt P05455); test: AtheNA, Ab 50 ug/ml
Centromere B [42] = biological target: Centromere B (UniProt P07199); test: AtheNA, Ab 25 ug/ml; remark: listed apart in the source
Histones [43] = test: AtheNA, Ab 25 ug/ml; remark: listed apart in the source
Jo-1 [44] = biological target: Jo-1 (UniProt P12081); test: AtheNA, Ab 25 ug/ml; remark: listed apart in the source
RNP (ribonucleoprotein) [45] = test: AtheNA, Ab 25 ug/ml; remark: listed apart in the source
SSA [46] = test: AtheNA, Ab 25 ug/ml; remark: listed apart in the source
SSB [47] = biological target: SSB (UniProt P05455); test: AtheNA, Ab 25 ug/ml; remark: listed apart in the source
Scl-70 [48] = biological target: Scl-70 (UniProt P11387); test: AtheNA, Ab 25 ug/ml; remark: listed apart in the source
Sm (Smith antigen) [49] = test: AtheNA, Ab 25 ug/ml; remark: listed apart in the source
Jo-1 [50] = biological target: Jo-1 (UniProt P12081); test: AtheNA, Ab 50 ug/ml; remark: listed apart in the source
SSB [51] = biological target: SSB (UniProt P05455); test: AtheNA, Ab 50 ug/ml; remark: listed apart in the source
Centromere B [52] = biological target: Centromere B (UniProt P07199); test: AtheNA, Ab 12.5 ug/ml
Histones [53] = test: AtheNA, Ab 12.5 ug/ml
Jo-1 [54] = biological target: Jo-1 (UniProt P12081); test: AtheNA, Ab 12.5 ug/ml
RNP (ribonucleoprotein) [55] = test: AtheNA, Ab 12.5 ug/ml
SSA [56] = test: AtheNA, Ab 12.5 ug/ml
SSB [57] = biological target: SSB (UniProt P05455); test: AtheNA, Ab 12.5 ug/ml
Scl-70 [58] = biological target: Scl-70 (UniProt P11387); test: AtheNA, Ab 12.5 ug/ml
Sm (Smith antigen) [59] = test: AtheNA, Ab 12.5 ug/ml
Centromere B [60] = biological target: Centromere B (UniProt P07199); test: AtheNA, Ab 6.25 ug/ml
Histones [61] = test: AtheNA, Ab 6.25 ug/ml
Jo-1 [62] = biological target: Jo-1 (UniProt P12081); test: AtheNA, Ab 6.25 ug/ml
RNP (ribonucleoprotein) [63] = test: AtheNA, Ab 6.25 ug/ml
SSA [64] = test: AtheNA, Ab 6.25 ug/ml
SSB [65] = biological target: SSB (UniProt P05455); test: AtheNA, Ab 6.25 ug/ml
Scl-70 [66] = biological target: Scl-70 (UniProt P11387); test: AtheNA, Ab 6.25 ug/ml
Sm (Smith antigen) [67] = test: AtheNA, Ab 6.25 ug/ml

Sequence of Centromere B (P07199 whole entry): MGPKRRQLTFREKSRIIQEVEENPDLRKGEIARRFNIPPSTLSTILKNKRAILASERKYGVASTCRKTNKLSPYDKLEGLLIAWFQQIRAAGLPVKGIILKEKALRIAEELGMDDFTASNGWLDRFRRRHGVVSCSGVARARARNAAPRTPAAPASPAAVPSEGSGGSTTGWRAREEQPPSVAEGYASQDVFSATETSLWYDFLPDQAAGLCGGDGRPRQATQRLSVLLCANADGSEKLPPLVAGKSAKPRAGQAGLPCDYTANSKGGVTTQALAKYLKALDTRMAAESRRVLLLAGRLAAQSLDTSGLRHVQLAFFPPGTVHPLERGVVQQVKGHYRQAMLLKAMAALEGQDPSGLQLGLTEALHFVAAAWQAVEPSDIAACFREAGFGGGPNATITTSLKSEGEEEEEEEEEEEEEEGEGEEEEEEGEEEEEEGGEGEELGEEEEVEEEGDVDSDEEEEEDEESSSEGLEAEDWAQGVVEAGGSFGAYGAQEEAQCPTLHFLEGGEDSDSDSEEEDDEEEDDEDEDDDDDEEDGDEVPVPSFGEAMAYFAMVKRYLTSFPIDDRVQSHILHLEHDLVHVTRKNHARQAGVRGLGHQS
Sequence of SSB (P05455 whole entry): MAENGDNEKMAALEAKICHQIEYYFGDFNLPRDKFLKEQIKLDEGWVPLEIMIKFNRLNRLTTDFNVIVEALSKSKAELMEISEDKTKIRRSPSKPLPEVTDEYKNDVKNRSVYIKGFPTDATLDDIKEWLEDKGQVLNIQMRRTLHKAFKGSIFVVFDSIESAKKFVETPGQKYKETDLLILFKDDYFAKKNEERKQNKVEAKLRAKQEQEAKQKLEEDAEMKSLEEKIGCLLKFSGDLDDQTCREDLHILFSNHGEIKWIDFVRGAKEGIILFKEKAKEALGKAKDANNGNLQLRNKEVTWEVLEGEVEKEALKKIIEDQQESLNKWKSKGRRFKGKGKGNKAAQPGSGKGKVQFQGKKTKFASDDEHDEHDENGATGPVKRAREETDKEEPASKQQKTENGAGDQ
Sequence of Jo-1 (P12081 whole entry): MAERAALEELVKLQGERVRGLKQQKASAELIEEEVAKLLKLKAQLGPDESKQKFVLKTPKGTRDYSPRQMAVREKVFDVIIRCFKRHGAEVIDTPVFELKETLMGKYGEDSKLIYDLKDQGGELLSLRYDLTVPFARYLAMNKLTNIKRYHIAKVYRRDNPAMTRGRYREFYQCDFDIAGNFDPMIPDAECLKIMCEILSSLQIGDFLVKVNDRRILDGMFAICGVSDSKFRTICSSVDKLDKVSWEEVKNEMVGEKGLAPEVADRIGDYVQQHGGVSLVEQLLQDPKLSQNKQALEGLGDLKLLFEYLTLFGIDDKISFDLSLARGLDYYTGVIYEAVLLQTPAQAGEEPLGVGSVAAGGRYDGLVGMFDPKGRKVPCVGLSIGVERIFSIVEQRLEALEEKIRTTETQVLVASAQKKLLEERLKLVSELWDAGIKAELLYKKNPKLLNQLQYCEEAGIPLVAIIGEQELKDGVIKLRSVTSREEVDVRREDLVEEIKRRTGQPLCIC
Sequence of Scl-70 (P11387 whole entry): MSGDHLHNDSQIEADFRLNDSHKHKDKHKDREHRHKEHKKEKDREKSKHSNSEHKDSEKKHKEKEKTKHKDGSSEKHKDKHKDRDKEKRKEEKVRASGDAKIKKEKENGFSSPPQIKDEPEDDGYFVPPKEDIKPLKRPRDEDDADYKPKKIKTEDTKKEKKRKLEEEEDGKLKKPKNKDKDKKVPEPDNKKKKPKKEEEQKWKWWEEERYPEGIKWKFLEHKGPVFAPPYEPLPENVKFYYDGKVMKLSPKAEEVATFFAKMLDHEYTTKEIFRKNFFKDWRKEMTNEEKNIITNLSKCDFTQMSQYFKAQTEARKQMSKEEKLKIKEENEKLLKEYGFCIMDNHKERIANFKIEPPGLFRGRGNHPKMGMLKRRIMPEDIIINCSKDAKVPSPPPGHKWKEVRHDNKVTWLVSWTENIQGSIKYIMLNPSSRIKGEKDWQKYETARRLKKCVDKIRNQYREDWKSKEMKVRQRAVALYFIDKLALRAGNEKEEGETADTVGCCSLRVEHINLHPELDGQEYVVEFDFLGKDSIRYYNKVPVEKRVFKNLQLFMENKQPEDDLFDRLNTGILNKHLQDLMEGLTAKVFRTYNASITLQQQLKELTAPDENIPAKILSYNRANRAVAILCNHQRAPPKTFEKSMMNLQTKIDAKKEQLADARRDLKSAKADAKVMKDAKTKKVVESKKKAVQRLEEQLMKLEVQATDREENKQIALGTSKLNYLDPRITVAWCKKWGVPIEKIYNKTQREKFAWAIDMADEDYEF

CH235.9 N30T (antibody)
neutralization IC50, TZM-bl pseudovirus assay [1]: > 44 µg/mL | neutralization IC50, TZM-bl pseudovirus assay [2]: > 44 µg/mL | fold increase of neutralization IC50 against CH235.9 [3]: 37 fold | neutralization IC50, TZM-bl pseudovirus assay [3]: 24.3 µg/mL | neutralization IC50, TZM-bl pseudovirus assay [4]: > 44 µg/mL

CH105 (antibody)
LogAUC (CH505.M10D8gp120): 11.3 | LogAUC (CH505.M11D8gp120/293F): 11.7 | LogAUC (CH505.M19D8gp120): 10.9 | LogAUC (CH505.M21D8gp120/293F): 11.2 | LogAUC (CH505.M5D8gp120293F): 8.63 | LogAUC (CH505.M7D8gp120/293F): 10.2 | LogAUC (CH505.M9D8gp120/293F): 10.6 | LogAUC [5]: 10.6 | LogAUC [6]: 11.1 | LogAUC [7]: 9.33 | LogAUC [8]: 11 | LogAUC [9]: 12.7 | LogAUC [10]: 8.52 | LogAUC [11]: 9.67 | LogAUC [12]: 13.7 | LogAUC [13]: 10.7 | LogAUC [14]: 10.4 | LogAUC [15]: 10.2 | LogAUC [16]: 12.4 | LogAUC [17]: 12.8 | LogAUC [18]: 12 | LogAUC [19]: 10.7 | LogAUC [20]: 10.6 | LogAUC [21]: 9.86 | LogAUC [22]: 6.66 | LogAUC [23]: 7.7 | LogAUC [24]: 11.1 | LogAUC [25]: 6.58 | LogAUC [26]: 8.61 | LogAUC [27]: 6.55 | LogAUC [28]: 6.03 | LogAUC [29]: 4.58 | LogAUC [30]: 4.94 | LogAUC [31]: 12.2

4E10 (antibody)
AtheNA signal (relative luminescence units) (Centromere B [32]): 3 | AtheNA signal (relative luminescence units) (Histones [33]): 10 | AtheNA signal (relative luminescence units) (Jo-1 [34]): 160 | AtheNA signal (relative luminescence units) (RNP (ribonucleoprotein) [35]): 3 | AtheNA signal (relative luminescence units) (SSA [36]): 33 | AtheNA signal (relative luminescence units) (SSB [37]): 227 | AtheNA signal (relative luminescence units) (Scl-70 [38]): 1 | AtheNA signal (relative luminescence units) (Sm (Smith antigen) [39]): 2 | AtheNA signal (relative luminescence units) (Jo-1 [40]): 190 | AtheNA signal (relative luminescence units) (SSB [41]): 263 | AtheNA signal (relative luminescence units) (Centromere B [42]): 9 | AtheNA signal (relative luminescence units) (Histones [43]): 24 | AtheNA signal (relative luminescence units) (Jo-1 [44]): 206 | AtheNA signal (relative luminescence units) (RNP (ribonucleoprotein) [45]): 20 | AtheNA signal (relative luminescence units) (SSA [46]): 81 | AtheNA signal (relative luminescence units) (SSB [47]): 189 | AtheNA signal (relative luminescence units) (Scl-70 [48]): 4 | AtheNA signal (relative luminescence units) (Sm (Smith antigen) [49]): 46 | AtheNA signal (relative luminescence units) (Jo-1 [50]): 227 | AtheNA signal (relative luminescence units) (SSB [51]): 207 | AtheNA signal (relative luminescence units) (Centromere B [52]): 1 | AtheNA signal (relative luminescence units) (Histones [53]): 7 | AtheNA signal (relative luminescence units) (Jo-1 [54]): 131 | AtheNA signal (relative luminescence units) (RNP (ribonucleoprotein) [55]): 3 | AtheNA signal (relative luminescence units) (SSA [56]): 21 | AtheNA signal (relative luminescence units) (SSB [57]): 199 | AtheNA signal (relative luminescence units) (Scl-70 [58]): 0 | AtheNA signal (relative luminescence units) (Sm (Smith antigen) [59]): 3 | AtheNA signal (relative luminescence units) (Centromere B [60]): 2 | AtheNA signal (relative luminescence units) (Histones [61]): 6 | AtheNA signal (relative luminescence units) (Jo-1 [62]): 113 | AtheNA signal (relative luminescence units) (RNP (ribonucleoprotein) [63]): 3 | AtheNA signal (relative luminescence units) (SSA [64]): 17 | AtheNA signal (relative luminescence units) (SSB [65]): 178 | AtheNA signal (relative luminescence units) (Scl-70 [66]): 1 | AtheNA signal (relative luminescence units) (Sm (Smith antigen) [67]): 3
